Results: the DeepSol protein solubility set

Assay: soluble on expression in E. coli; label from the status in PepcDB or PDB records

Sequence | soluble on expression in E. coli
MFPIASRRILLNASVLPLRLCNRNFTTTRISYNVIQDLYLRELKDTKLAPSTLQDAEGNVKPWNPPQKPNLPELELQGPEALKAYTEQNVETAHVAKESEEGESEPIEEDWLVLDDAEETKESH | not soluble
MAESDWDTVTVLRKKGPTAAQAKSKQAILAAQRRGEDVETSKKWAAGQNKQHSITKNTAKLDRETEELHHDRVTLEVGKVIQQGRQSKGLTQKDLATKINEKPQVIADYESGRAIPNNQVLGKIERAIGLKLRGKDIGKPIEKGPRAK | not soluble
MGSDKIHHHHHHMKRACVIGAGFGGLALAIRLQSGGVQTTLIEARDKPGGRAYFWEKDGFTFDGGPTVITDPACLEELWALKGHRMADDVELMPVMPFYRLNWADGTNFDYSNDDASLRAEIAKLEPADVAGYDDFLRYSAGVFEEGYVKLGAVPFLDFASMIKAAPALARYQAWRSVYSMVSSFVRNEKLREAFSFHTLLVGGNPMTTSAIYALIHKLEKDGGVWWAKGGTNRLIEGMVTHFRRIGGEVRIGDPVTRVETLGTRVTGVETRSGWSGKFDAVASNADVMHSYRDLLSDNSHAKRRAKSLGKKRFSPSLFVVHFGIEGTWPGIPHHMILFGPRYKGLLDDIYTHGVLPQDFSIYLHHPTVTDPSVAPEGMSTFYALVPVANMGKLPVNWDEVGPILEKRILDEVGRRLIPDIHTRIVTKFHYAPSDFSTDLSAHLGSAFSLEPLLTQSAWFRAHNRDDAISNFYLVGAGTHPGAGIPGVVGSAKATARLMLEDLS | not soluble
MTVAVIGAHGGIGRRLLPRLNEAGHDPIGVVRSEDQFAAIRDRGAEPRLGDLEGEVASALDGADAVVFTAGAGGSTGWDKTILVDLWGAERAVHACEEKEIDRFVMVSSRGAGDPESRQGPIKPYIVAKHVADRTLQRSSLDETILRPTRLTDAEGTGRVAAYVDTDPDAGDPIPRADVAQAVVQCLADDNTVGHAITLYGGDTPIGEALRPSGLEHHHHHH | not soluble
MSLVLNFVGTGTLTRFFLECLKDRYEIGYILSRSIDRARNLAEVYGGKAATLEKHPELNGVVFVIVPDRYIKTVANHLNLGDAVLVHCSGFLSSEIFKKSGRASIHPNFSFSSLEKALEMKDQIVFGLEGDERGLPIVKKIAEEISGKYFVIPSEKKKAYHLAAVIASNFPVALAYLSKRIYTLLGLDEPELLIHTLMKGVADNIKKMRVECSLTGPVKRGDWQVVEEERREYEKIFGNTVLYDEIVKLLREVAESERREAQEDEREGGSHHHHHH | soluble
MNVPGAAPFLTAQSEEEATEVLESIHPDPEKSGARYIMSDERMAVDIFMAMPEWTLDTEGYMQPYWTGDGYQYLPSKRYFDSMESRLHFLDGNGLKQYRLVYETWAYQTQEAGYKQVYNFLYGSSIPEVDSGYVKIFEYVKGAKITGTVSPNETVNINTTILTGQGRTFELEHHHHHH | soluble
MNIFDHYRQRYEAAKDEEFTLQEFLTTCRQDRSAYANAAERLLMAIGEPVMVDTAQEPRLSRLFSNRVIARYPAFEEFYGMEDAIEQIVSYLKHAAQGLEEKKQILYLLGPVGGGKSSLAERLKSLMQLVPIYVLSANGERSPVNDHPFCLFNPQEDAQILEKEYGIPRRYLGTIMSPWAAKRLHEFGGDITKFRVVKVWPSILQQIAIAKTEPGDENNQDISALVGKVDIRKLEHYAQNDPDAYGYSGALCRANQGIMEFVEMFKAPIKVLHPLLTATQEGNYNGTEGISALPFNGIILAHSNESEWVTFRNNKNNEAFLDRVYIVKVPYCLRISEEIKIYEKLLNHSELTHAPCAPGTLETLSRFSILSRLKEPENSSIYSKMRVYDGESLKDTDPKAKSYQEYRDYAGVDEGMNGLSTRFAFKILSRVFNFDHVEVAANPVHLFYVLEQQIEREQFPQEQAERYLEFLKGYLIPKYAEFIGKEIQTAYLESYSEYGQNIFDRYVTYADFWIQDQEYRDPDTGQLFDRESLNAELEKIEKPAGISNPKDFRNEIVNFVLRARANNSGRNPNWTSYEKLRTVIEKKMFSNTEELLPVISFNAKTSTDEQKKHDDFVDRMMEKGYTRKQVRLLCEWYLRVRKSS | soluble
MGLVQTNDQQLFIGVDGGGSKCRATIYTADGTVLGTGVAGRANPLHGLAQTFESIEASAHQALLDAGMKATDSHLLVAGLGLAGVNVPRLYQDVVNWQHPFAAMYVTTDLHTACIGAHRGADGAVIITGTGSCGYAHVGDASLSIGGHGFALGDKGSGAWLGLKAAEHVLLALDGFATPTALTEMLLSHLGVKDALGIVEHLAGKSSSCYAQLARNVLDCANAGDQVAIAIVQEGADYISEMARKLFMLNPVRFSMIGGLAEPLQAWLGSDVVAKISETLAPPELGAMYYAQQQFNSATVLEHHHHHH | soluble
MGSDKIHHHHHHMNAPLNHPLPLLDLDVLRTFVAIAETGSFTTAANAVFRTPSAVSMQIKKLEDILGRSVFARDARSVSLTTDGEMLLGYARRLLSINREVVSKFIIPEIVGVVRLGSPDDYGERVLPHVLKRFAQSHPSIAVDVTIDQSSNLRRRMDDRALDITLLTNSYKTSALGAEVLLTEPIVWAGAKGGCAHLREPLPVSLWEEGCAWRAGALEALGREGRNYRVAYMSAHTAGQRAAIMADLAVAPLPRSFLGNDMVELCPKDGMPDIGTYNLAMVVAPDASAPVKAVADHIRATFEVFRETGKF | not soluble
MGSDKIHHHHHHMETCRQEVTMDKVFIISQKAEQQADAIETGIALARVLEKEAEVFAYSYESFAGKEYYNPRLGAAAKVALMNQRSEEIAAKLKALKAEDVAVHSVWTKDLFEHACHHSIRHGFDLMVKAVHHKTHYLPMDWQLIRHVRIPLMMLCDNPLQRARSVLMAVDLGSDNPIKQKLNQCVIQQGRQLAEAMDCQLHLAYIIRVPKILRDMDLIDTRTLVKDAYHRYQPQLDEIDLHQEHVHFLAGDPDLCLYELSCRLKAAYLVMGARQRKGLMGMVIGNTAEAMLTRIRSNVLIIPADDQLLPA | not soluble
MGSDKIHHHHHHMTQLANTKFSLNDFELRDGIYFPSDYEQLNNTQHKKTWDAIGKTYYGSQKIEKLADTSPIKQDYTLLTGTPGGTWNKFPLNKSVGSILEIGSGYGRAPLHLSKAKNLRCEKYYGIDISEPLLRRLIKVKQEYNFFPEAEFNLICTSAEILPLEDNSIDLVISNCVFMHIPDAQLRSLLADISRVLKPGGIFVFNHSFHNKSCPSHIIHNFVRKLNPFVRNPVYLKQYSSAEINEMLASAGIQTKCPQYIVEPTEEYAILPETIKGIPVPFAKAINRSLKPSDALKETLAYGFSAYSSQLD | not soluble
MEKNRSAFQQNQQASNQPFNQDQNQYYQDPNQQQFNQSGFDPNQQQFNQPGFDPNQQYYQDPNQQQFNQAGFDQNQQYYQDPNQQQFNQPGFDPNQQYYQDPNQQQFNQAGFDQNQYYQDPNQQQFNQSGFDQNQYYQDPNQQQFNQPSFDLNNQQFNQPGFNQSPAFEITPQEQKAEQEMFGEEPPQVVREIHELPFEKIRSFLQSDFDSYNFRLNSLKSKLDNALYSLDKTIQNTNENTANLEAIRHNLEQKIQNQSKQLRTNFDTQKLDDKINELEIRMQKLTRNFESLSELSKHNSYPNYYEKLLPNGGDSMTNVFEKALMMNLLRTTLPPQPQVQYYPQPYPYIRPYYDEPIYAGFRRRGYRDDFYE | soluble
MSLRSTLAGTVRTQQGEIYLNGDADWSQIENWRARVTAKGSKVRITVPPMVRMDVSPDVVFEATPNLFTLDGRVDVPWARIVVHDLPESAVGVSSDVVMLNDNLQPEEPKTASIPINSNLIVHVGNNVRIDAFGLKARLTGDLNVVQDKQGLGLNGQINIPEGRFHAYGQDLIVRKGELLFSGPPDQPYLNIEAIRNPDATEDDVIAGVRVTGLADEPKAEIFSDPAMSQQAALSYLLRGQGLESDQSDSAAMTSMLIGLGVAQSGQIVGKIGETFGVSNLALDTQGVGDSSQVVVSGYVLPGLQVKYGVGIFDSIATLTLRYRLMPKLYLEAVSGVDQALDLLYQFEFEGHHHHHH | soluble
MRGSHHHHHHGSAELHLESRGGSGTQLRDGAKVATGRIICREAHTGFHVWMNERQVDGRAERYVVQSKDGRHELRVRTGGDGWSPVKGEGGKGVSRPGQEEQVFFDVMADGNQDIAPGEYRFSVGGACVVPQEDNKQGFTPSGTTGTTKLTVT | soluble
MGSDKIHHHHHHMDDAMVSAVTCGAVMAFDRNIWIEKFLENSVPSFPCPHCSRGVLGFDGKSFWKEEPKHSKDAHAHDDWDPTWIEERFVMFLRCGVAKCGEVVAVSGNIEVEEVVDEDEGYDFASVLYPTSLVPAPPIIQMTDGTPDEVAGELSLAFQLFWADLGASATKIRTSVERLMDHFKVARYSRTKGKLKPIPLYNRIEAFIKANGKVVHQDHLHALRVVGNLGTHKNSLTRSDILEAFQVYEHALDELIGKKSASIAKLARKLKKK | not soluble
MKLLTLNCHSWQEENQIEKIQYLAKVIQEEEYDVIALQEVSQSIQAENVCGNKKKDNFGLLLLEELKALHVKDYNITWDFSHIGYDVYEEGLAIITKHNIIKEDTFFISENEDTTYWKTRKIVSTTIAYNGKDITFYSCHLGWWNDEEESFKGQVDRLMERVDSNKLAFLMGDFNNNARLKGEGYEYMMQKGLYDTYELAIEKDEGTTVQGEIAGWDENKHNLRIDLILCNQSKKVHSSKVIFNGTNRNVISDHFGVEVQLDI | not soluble
GPGSMEEDLAYKIIVIGSVSVGKSNITSRFCDGAFYPDLVPTLGMDFKYSSCNTLEKRPRCVRLQVWDTSGQDDFVTLTTAFYRNCQGALLCFDLTNRQSFEDLDQWYERLERYSPVVPPLILVGCKLDLVESHLDEQGEGIVLGSHRQIAKSEADAWARYHSCLCYLETSAKENRNVSQAFQQLATCIASVANPGAKHAGRILGPGGRLLVEEEKQQKRQCCAN | not soluble
MSSKVSPLAPTDVPAMPMIAGVRLATAAAGIRYKGRTDVLLVEMEKGTTVAGVFTTSKCASAPVEWCRDKLKGGSARALVVNSGNANAFTGKSGKQAATLTAQLAAKAIGCKPAEVFLASTGVIGEPLDATKFDGVLDALALDAGPDGWMDAAKAIMTTDTFPKVATATVKLGKAKVTINGMAKGAGMIAPDMATMLSFIFTDAPLSASCLQALLKAGVTDTFNAVTIDGDTSTSDTLLAFATGAAAENGAPKISRASDPRLKAFVKAFNAVLADLAEQVARDGEGARKLVEIIVEGAKTKVSARKIALSIANSPLVKTAIAGEDANWGRVVMAVGKAGEPADRDKLSISFNGIRVAKAGARDPSYNEKEVSAEMKKPVIQIKVALGLGKGRDRVLTCDLTKEYVAINGDYRSLEHHHHHH | not soluble
IDAPSFRDKRQADKLFEKDTMDWKVSINDKSIDYSQYKMPGKKGAFPYSNLDEQLAEYNELNGVYFSNGKRVELSELQATGTAKETHRVNSPLTKAKIAYLEMTDEERQLFMKWVSQQ | not soluble
METEEWFFKGISRKDAERQLLAPGNMLGSFMIRDSETTKGSYSLSVRDYDPRQGDTVKHYKIRTLDNGGFYISPRSTFSTLQELVDHYKKGNDGLCQKLSVPCMSSK | soluble
MSLTTPLYPIILAGGSGTRLWPLSRQNFPKQFLKLNGELSLIQQTMKRAMGLPGNQTIIVSNDAHYFICQDQLQDFNAQTTYLLEPCARNTAPAIACAAHYLANTVGKDAVMLVLPSDHWIADDEIWLAAMLEGGQFASENNAIVTFGIKPDSPKTGYGYIEAGTTLSSDIKQVLSFREKPDAHTAAQFVSKGNYFWNSGMFICRAGVYLEELEQFETDIYQFSQQALTLAQHHHDFLRLDLDCFSQCKEESIDYAIMEKTDKAVVIPISIQWSDLGCWTAVADANKQDEQGNTLIGNVIAQDSHNCLINSEELLVTTVGIQDQIIVATSDAVLVADKRYSQQVKDLVHSLRKDHPHLTQDHQRVPRPWGYYEVLAEGTSFKVKRLMVKPGAKLSLQTHQHRAEHWVIVGGEAEVVNGNNTFRLSKNQSTYIPKNALHRLSNPHNEPLYVIEVQSGSYLGEDDIKRFDDIYLRKEVEEGHHHHHH | soluble
